Paper PMC12594171, “DKK3-LRP1 complex and a chemical inhibitor regulate Aβ clearance in models of Alzheimer’s disease” (Science Advances, 2025)

Target: mLRPIV-HA, stably expressed in SH-SY5Y
Assay: co-IP + ELISA; SH-SY5Y cells stably expressing mLRPIV-HA incubated with Aβ42 and 1 to 200 nM DKK1 or DKK3; mLRPIV-HA precipitated with anti-HA affinity gel; Aβ42 in the eluate by ELISA

Chain of DKK3-Flag (Q9UBP4 22-350): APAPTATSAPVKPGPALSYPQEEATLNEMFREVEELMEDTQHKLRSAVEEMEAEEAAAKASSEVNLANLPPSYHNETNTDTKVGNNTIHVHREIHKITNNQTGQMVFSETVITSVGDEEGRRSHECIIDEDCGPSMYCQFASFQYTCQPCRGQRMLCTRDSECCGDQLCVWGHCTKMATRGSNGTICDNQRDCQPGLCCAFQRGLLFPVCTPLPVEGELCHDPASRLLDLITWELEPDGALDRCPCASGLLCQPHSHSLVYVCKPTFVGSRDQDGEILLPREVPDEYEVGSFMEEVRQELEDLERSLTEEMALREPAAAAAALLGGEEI

percent reduction of Aβ42 binding to mLRPIV at 20 nM DKK3: 60%
Substance: DKK3-Flag (from UniProt Q9UBP4 22-350) (ligand)
